From patent US8980581B2, “Site-specific incorporation of amino acids into molecules” (California Institute of Technology, priority 2006, dated 2015)
Values after ≈ are worked out from the molar mass of the structure shown. Where two headings read alike, the source gives them in different places.

How the values were obtained:
[1] = biological target: modified yeast PheRS (T415G) and tRNA^Phe with an amber suppressor (Saccharomyces cerevisiae, UniProt P15625, T415G); type: cell-based; conditions: FIG. 13 mass spectra
Protocol: A yeast PheRS library (using green fluorescent protein or GFP) was screened to identify PheRS mutations that enable the incorporation of NaI.
Briefly, GFP was ligated into a vector containing the mutant T415G or wild type yeast PheRS gene according to standard procedures. The mutant yeast amber suppressor tRNA (yRNA^PheAAA) was constitutively expressed under control of Ipp promoter and transformed into a Phe/Trp double E. coli auxotrophic strain AFW. Cells were grown in M9 minimal medium supplemented with glucose, thiamin, MgSO4, CaCl2, 20 amino acids (at 25 mg/L), antibiotics (35 μg/mL of kanamycin and 100 μg/mL of ampicillin). When cells reached an OD600 of 0.8-1.0, cells were pelleted and washed twice by ice-cold 0.9% NaCl and shifted to expression media supplemented with 18 amino acids (at 20 mg/L) and various concentrations of phenylalanine, tryptophan and 2NaI. Protein expression was induced by IPTG.

[2] = biological target: mu-yPheRS (Thr415Gly or Thr415Ala mutation in the α-subunit) (Saccharomyces cerevisiae, UniProt P15625, T415G); experiment: adenosine triphosphate-pyrophosphate exchange assay, activation of NaI and Phe by mu-yPheRS; type: biochemical
Chain of mu-yPheRS (Thr415Gly or Thr415Ala mutation in the α-subunit) (P15625 2-503 T415G): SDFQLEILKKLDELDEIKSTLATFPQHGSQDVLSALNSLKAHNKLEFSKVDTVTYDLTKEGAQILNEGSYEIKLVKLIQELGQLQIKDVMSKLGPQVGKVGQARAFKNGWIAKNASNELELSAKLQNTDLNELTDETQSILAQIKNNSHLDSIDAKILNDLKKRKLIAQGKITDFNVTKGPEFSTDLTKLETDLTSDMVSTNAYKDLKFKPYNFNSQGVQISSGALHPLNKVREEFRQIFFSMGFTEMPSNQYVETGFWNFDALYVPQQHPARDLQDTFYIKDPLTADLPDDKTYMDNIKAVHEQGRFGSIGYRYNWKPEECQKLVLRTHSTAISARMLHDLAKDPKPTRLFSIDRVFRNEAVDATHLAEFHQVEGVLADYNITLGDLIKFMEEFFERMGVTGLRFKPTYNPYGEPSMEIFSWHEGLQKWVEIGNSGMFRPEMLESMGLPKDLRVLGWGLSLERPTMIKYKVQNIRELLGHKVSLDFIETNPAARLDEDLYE
Chain of mu-yPheRS (Thr415Gly or Thr415Ala mutation in the α-subunit) (P15624 2-595, further chain): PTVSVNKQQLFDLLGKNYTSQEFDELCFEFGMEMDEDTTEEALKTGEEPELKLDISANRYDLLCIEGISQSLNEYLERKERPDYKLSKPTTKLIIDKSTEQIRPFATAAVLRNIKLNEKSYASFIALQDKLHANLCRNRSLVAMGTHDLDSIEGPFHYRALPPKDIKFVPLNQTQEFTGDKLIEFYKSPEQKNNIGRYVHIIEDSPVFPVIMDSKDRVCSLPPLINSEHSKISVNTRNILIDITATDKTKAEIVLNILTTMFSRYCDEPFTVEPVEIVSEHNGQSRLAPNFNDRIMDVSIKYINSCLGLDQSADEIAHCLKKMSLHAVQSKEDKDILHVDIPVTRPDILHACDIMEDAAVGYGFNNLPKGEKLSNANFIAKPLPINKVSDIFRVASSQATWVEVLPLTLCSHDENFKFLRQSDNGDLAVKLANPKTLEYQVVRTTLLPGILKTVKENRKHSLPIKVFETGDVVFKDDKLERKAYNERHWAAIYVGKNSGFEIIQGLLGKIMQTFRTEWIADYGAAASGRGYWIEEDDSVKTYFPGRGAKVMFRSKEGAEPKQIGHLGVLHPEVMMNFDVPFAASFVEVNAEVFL
Protocol: The modified yeast PheRS (mu-yPheRS) was prepared by introduction of a Thr415Gly or Thr415Ala mutation in the α-subunit of the synthetase (Datta et al., J. Am. Chem. Soc. 124: 5652, 2002). The kinetics of activation of NaI and Phe by mu-yPheRS were analyzed in vitro via the adenosine triphosphate-pyrophosphate exchange assay. […] In addition, the T415G mutant was generated by four-primer mutagenesis.

[3] = biological target: T1, mutant yeast PheRS with mutations in N412G, S418C, T415G and S437F (Saccharomyces cerevisiae, UniProt P15625, N412G/S418C/S437F/T415G); experiment: yeast PheRS library GFP/FACS screening, incorporation at UUU codon; type: cell-based; conditions: mutant yPheRS N412G, S437F after two cycles of screening
T1 construct: expressed in transfected cells; host or cells: E. coli AFW and DHF cells carrying pQE9_GFP6/GFP9_yPheRS library plasmids
Description: For example, in one embodiment, a yeast PheRS library is subjected to double sieve screening in order to detect high levels of incorporation of a non-natural amino acid or misincorporation of natural amino acids other than Phe will lead to severe misfolding or unfolding of GFP. The yeast PheRS library cells are thus subjected to high-throughput screening based on flow cytommetry analysis (FACS). First, the yeast PheRS library cells are expressed in the presence of 2NaI and low fluorescent cells indicating higher incorporation of either 2NaI or other natural amino acids are collected by FACS. Next, the yeast PheRS library cells are expressed without 2NaI. Bright cells are collected in order to eliminate yeast PheRS variants that can misincorporate other natural amino acids.
Library construction was performed in two steps as well. […]
The library was transformed into chemical-competent AFW and DHF E. coli cells. […] Glycerol stocks of the library were expressed as is standard in the art.
After expression of GFP for 3 hours, 1 mL of cells (based on OD600 of 1.0) were washed with PBS and diluted in distilled water, then subjected to flow cytometric analysis (MoFlo cell Sorter®, DakoCytomation, Fort Collins, Colo.), using an excitation wavelength of 488 nm, emission of 525 nm, and a cut-off filter of 495 nm. […] Data were analyzed with Summit software (DakoCytomation). […]

N[C@@H](Cc1ccccc1)C(=O)O = experiment: purified protein, by the assay type; conditions: pH 7.6
[4] = tested on: N[C@@H](Cc1c[nH]c2ccccc12)C(=O)O; experiment: purified protein, by the assay type; conditions: pH 7.6
[5] = tested on: N[C@@H](Cc1ccc2ccccc2c1)C(=O)O; experiment: purified protein, by the assay type; conditions: pH 7.6
Escherichia coli = conditions: E. coli cells, cited from earlier work
[6] = biological target: (T415A) yeast phenylalanine aminoacyl tRNA synthetase (PheRS) (Saccharomyces cerevisiae, UniProt P15625, T415A); type: biochemical
Chain of (T415A) yeast phenylalanine aminoacyl tRNA synthetase (PheRS) (P15624 whole entry): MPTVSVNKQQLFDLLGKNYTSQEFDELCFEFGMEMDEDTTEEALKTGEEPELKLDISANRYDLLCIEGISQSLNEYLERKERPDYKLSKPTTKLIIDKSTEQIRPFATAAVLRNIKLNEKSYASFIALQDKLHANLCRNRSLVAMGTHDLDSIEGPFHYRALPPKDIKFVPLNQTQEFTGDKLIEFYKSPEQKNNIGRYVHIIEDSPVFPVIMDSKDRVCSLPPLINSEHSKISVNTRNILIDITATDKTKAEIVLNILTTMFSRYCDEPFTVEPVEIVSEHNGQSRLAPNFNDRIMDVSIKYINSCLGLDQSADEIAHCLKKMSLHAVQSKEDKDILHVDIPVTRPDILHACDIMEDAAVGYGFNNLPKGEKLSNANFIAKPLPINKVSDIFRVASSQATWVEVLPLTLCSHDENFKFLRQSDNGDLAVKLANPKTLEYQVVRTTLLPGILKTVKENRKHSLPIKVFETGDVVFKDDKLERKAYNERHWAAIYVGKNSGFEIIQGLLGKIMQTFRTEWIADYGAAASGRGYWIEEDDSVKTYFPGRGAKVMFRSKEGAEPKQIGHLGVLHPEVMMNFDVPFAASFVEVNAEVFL
Chain of (T415A) yeast phenylalanine aminoacyl tRNA synthetase (PheRS) (P15625 whole entry T415A): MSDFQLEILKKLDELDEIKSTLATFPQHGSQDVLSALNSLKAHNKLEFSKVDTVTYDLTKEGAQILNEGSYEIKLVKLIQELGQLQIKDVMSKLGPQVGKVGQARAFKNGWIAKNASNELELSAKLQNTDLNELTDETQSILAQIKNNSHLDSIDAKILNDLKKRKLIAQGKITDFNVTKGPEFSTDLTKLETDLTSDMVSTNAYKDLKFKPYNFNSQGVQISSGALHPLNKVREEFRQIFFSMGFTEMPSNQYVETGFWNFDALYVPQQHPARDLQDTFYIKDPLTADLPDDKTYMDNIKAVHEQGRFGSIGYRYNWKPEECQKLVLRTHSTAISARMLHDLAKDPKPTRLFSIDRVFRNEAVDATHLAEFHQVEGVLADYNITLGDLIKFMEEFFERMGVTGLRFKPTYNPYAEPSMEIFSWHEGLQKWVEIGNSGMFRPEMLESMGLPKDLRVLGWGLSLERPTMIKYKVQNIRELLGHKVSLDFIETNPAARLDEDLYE
Protocol: The amino acid-dependent ATP-PP; exchange reaction was used to evaluate the activation of amino acid analogs by yPheRS as described in the above Examples. Briefly, a 200 microliter aliquot of reaction buffer contains 50 mM HEPES (pH 7.6), 20 nM MgCl2, 1 mM DTT, 2 mM ATP, and 2 mM ^32P-pyrophosphate (PPi) with specific activity of 10-50 Ci/mol. Depending on the activity of analogs by the synthetase, the amino acid concentration varied from 10 microM to 2.5 mM and enzyme concentration varied from 10 nM to 100 nM. Aliquots of 20 microliters were removed from the reaction solution at various time points and quenched into 500 microliters of buffer solution containing 200 mN NaPPi, 7% w/v HclO4, and 3% w/v activated charcoal. The charcoal was spun down and washed twice with 500 microliters of 10 mM NaPP; and 0.5% HClO4 solution. The radio-labeled ATP absorbed into the charcoal was quantified via liquid scintillation methods. The specificity constants were calculated by non linear regression fit for the data to a Michaelis Menten model.

[7] = substrate: N[C@@H](Cc1ccccc1)C(=O)O; experiment: ATP-PPi exchange of amino acids by wild type yPheRS, Example 3; type: biochemical, Saccharomyces cerevisiae; conditions: other: enzyme wild type; pH 7.6
Protocol: The amino acid dependent ATP-PP; exchange reaction was used to evaluate the activation of non-natural amino acids by yPheRS. The assay was performed in 200 mincroliters of reaction buffer containing 50 mM HEPES (pH=7.6), 20 mM MgCl2, 1 mM DTT, 2 mM ATP and 2 mM [^32P]-PPi with specific activity of 0.2-0.5 TBq/mol. Depending on the activity of the various non-natural amino acids with the synthetase, the amino acid concentration varied from 10 microM to 5 mM and enzyme concentration varied from 10 nM to 100 nM. Aliquots of 20 microliters were removed from the reaction solution at various time points and quenched into 500 microliters of buffer solution containing 200 mM NaPPi, 7% w/v HClO4 and 3% w/v activated charcoal. The charcoal was spun down and washed twice with 500 microliters of 10 mM NaPPi and 0.5% HclO4 solution. The radio-labeled ATP absorbed into the charcoal was quantified via liquid scintillation methods. The specificity constants were calculated by nonlinear regression fit of the data to a Michaelis Menten model. The kinetic parameters for the ATP-PPi exchange of amino acids by the yPheRS (T415G), wild type yPheRS, and yPheRS_naph variant are shown in the table below.

For C#Cc1ccc(C[C@H](N)C(=O)O)cc1 [p-ethynyl-phenylalanine], the “incorporation into a test protein” value [1] was “incorporated into a test protein”.

In the case of N[C@@H](Cc1ccc2ccccc2c1)C(=O)O [2Nal, 3-(2-naphthyl)alanine], the “specificity constant (kcat/KM), fold larger than that for Phe” value [2] is reported as 8 fold and the “incorporation at UUU codon” value [3] is reported as “around 90%”.

“yPheRS_naph variant (Saccharomyces cerevisiae S288C; N412G/S418C/S437F/T415G)” showed a Km (N[C@@H](Cc1ccccc1)C(=O)O; other: enzyme naph) of 11010 ± 2688 µM, a kcat (N[C@@H](Cc1ccccc1)C(=O)O; other: enzyme naph) of 0.0095 ± 0.0021 s⁻¹ and a kcat/Km (N[C@@H](Cc1ccccc1)C(=O)O; other: enzyme naph) of 0.855 ± 0.007 M⁻¹ s⁻¹. It also gave a Km ([4]; other: enzyme naph) of 1424 ± 597 µM, a kcat ([4]; other: enzyme naph) of 0.0035 ± 0.0009 s⁻¹ and a kcat/Km ([4]; other: enzyme naph) of 2.52 ± 0.44 M⁻¹ s⁻¹. For the same molecule, the Km ([5]; other: enzyme naph) was 2030 ± 691 µM, the kcat ([5]; other: enzyme naph) was 0.03 ± 0.018 s⁻¹ and the kcat/Km ([5]; other: enzyme naph) was 14.5 ± 4.22 M⁻¹ s⁻¹.

For CC1(C)S[C@@H]2[C@H](NC(=O)[C@H](N)c3ccccc3)C(=O)N2[C@H]1C(=O)O [ampicillin], the IC50 (Escherichia coli; SctRNAGInCUA coexpressed with ScGInRS) is given as “about 500 μg/mL” and the IC50 (Escherichia coli; only SctRNAGInCUA expressed) is given as 20 µg/mL (≈ 57.2 µM).

In the case of N[C@@H](Cc1ccc(Br)cc1)C(=O)O [bromophenylalanine, p-bromo-phenylalanine], the “preference for bromophenylalanine than for naturally occurring phenylalanine” value [6] is reported as 5 fold.

For “yPheRS (T415G) (Saccharomyces cerevisiae S288C; T415G)”, the Km (N[C@@H](Cc1ccccc1)C(=O)O; other: enzyme T415G) was 55 ± 14 µM, the kcat (N[C@@H](Cc1ccccc1)C(=O)O; other: enzyme T415G) was 0.202 ± 0.11 s⁻¹ and the kcat/Km (N[C@@H](Cc1ccccc1)C(=O)O; other: enzyme T415G) was 3510 ± 1130 M⁻¹ s⁻¹. For the same molecule, the Km ([4]; other: enzyme T415G) was 2.83 ± 1.6 µM, the kcat ([4]; other: enzyme T415G) was 0.153 ± 0.003 s⁻¹ and the kcat/Km ([4]; other: enzyme T415G) was 63200 ± 34600 M⁻¹ s⁻¹. It also gave a Km ([5]; other: enzyme T415G) of 7.03 ± 0.14 µM, a kcat ([5]; other: enzyme T415G) of 0.208 ± 0.04 s⁻¹ and a kcat/Km ([5]; other: enzyme T415G) of 29500 ± 5850 M⁻¹ s⁻¹.

B1: wild type yPheRS (Saccharomyces cerevisiae S288C) (protein)
chain: MSDFQLEILKKLDELDEIKSTLATFPQHGSQDVLSALNSLKAHNKLEFSKVDTVTYDLTKEGAQILNEGSYEIKLVKLIQELGQLQIKDVMSKLGPQVGKVGQARAFKNGWIAKNASNELELSAKLQNTDLNELTDETQSILAQIKNNSHLDSIDAKILNDLKKRKLIAQGKITDFNVTKGPEFSTDLTKLETDLTSDMVSTNAYKDLKFKPYNFNSQGVQISSGALHPLNKVREEFRQIFFSMGFTEMPSNQYVETGFWNFDALYVPQQHPARDLQDTFYIKDPLTADLPDDKTYMDNIKAVHEQGRFGSIGYRYNWKPEECQKLVLRTHSTAISARMLHDLAKDPKPTRLFSIDRVFRNEAVDATHLAEFHQVEGVLADYNITLGDLIKFMEEFFERMGVTGLRFKPTYNPYTEPSMEIFSWHEGLQKWVEIGNSGMFRPEMLESMGLPKDLRVLGWGLSLERPTMIKYKVQNIRELLGHKVSLDFIETNPAARLDEDLYE
B1 showed a Km [7] of 3.85 ± 0.99 µM, a kcat [7] of 0.181 ± 0.011 s⁻¹ and a kcat/Km [7] of 51000 ± 22700 M⁻¹ s⁻¹.
